Laboratory results taken from US20110195849A1 (DUKE UNIVERSITY, published 2011).

Tests used:
MutSβ (MSH2-MSH3) [1] = target: T1, MutSβ (MSH2-MSH3) (human, UniProt P43246 2-934; P20585 1-1137); assay: SPRS, MutLα-MutSβ-DNA ternary complex
T1 construct: mature;range 1-1137; Recombinant heterodimer from baculovirus-infected Sf9 cells; 232 kDa; also called wild type MutSβ; MSH2-MSH3 heterodimer

MutSβ (MSH2-MSH3) [2] = target: T1, MutSβ (MSH2-MSH3); assay: SPRS, MutLα varied with 0.10 µM MutSβ on heteroduplex DNA, 1 mM ATP
Text: MutSβ PIP box mutants are defective in MutLα interaction—Interaction between MutS and MutL homologs has been documented in several systems (3, 4), but the nature of the human MutLα-MutSβ complex has not been addressed. We have therefore used SPRS to examine the capacity of MutSβ and its PIP box mutants to support formation of a MutLα-MutSβ-DNA ternary complex. With reference to FIG. 2A, ATP-dependent assembly of the MutLα-MutSβ-DNA ternary complex was scored by SPRS using a 200 bp -TG- I/D heteroduplex (solid lines) or homoduplex (dashed lines) DNA. […] Similar analyses were performed with MutSβΔ28 (middle panel) and MutSβ-F27A-F28A. […] This mass increase was not observed in the absence of ATP (not shown), and we were unable to detect DNA binding by MutLα alone (not shown). The latter results are consistent with previous findings that assembly of ternary complexes involving MutL and MutS homologs is ATP-dependent and that DNA binding by MutL homologs is limited at physiological ionic strength (17, 25, 35-38). The lifetime of the ternary complex is also short, with 80% dissociating with a t_{1/2} of 7s. […] Complex formation on homoduplex DNA (open symbols) was not saturable.

T1 sequence (P43246 2-934 limits assumed, chain 1 of 2): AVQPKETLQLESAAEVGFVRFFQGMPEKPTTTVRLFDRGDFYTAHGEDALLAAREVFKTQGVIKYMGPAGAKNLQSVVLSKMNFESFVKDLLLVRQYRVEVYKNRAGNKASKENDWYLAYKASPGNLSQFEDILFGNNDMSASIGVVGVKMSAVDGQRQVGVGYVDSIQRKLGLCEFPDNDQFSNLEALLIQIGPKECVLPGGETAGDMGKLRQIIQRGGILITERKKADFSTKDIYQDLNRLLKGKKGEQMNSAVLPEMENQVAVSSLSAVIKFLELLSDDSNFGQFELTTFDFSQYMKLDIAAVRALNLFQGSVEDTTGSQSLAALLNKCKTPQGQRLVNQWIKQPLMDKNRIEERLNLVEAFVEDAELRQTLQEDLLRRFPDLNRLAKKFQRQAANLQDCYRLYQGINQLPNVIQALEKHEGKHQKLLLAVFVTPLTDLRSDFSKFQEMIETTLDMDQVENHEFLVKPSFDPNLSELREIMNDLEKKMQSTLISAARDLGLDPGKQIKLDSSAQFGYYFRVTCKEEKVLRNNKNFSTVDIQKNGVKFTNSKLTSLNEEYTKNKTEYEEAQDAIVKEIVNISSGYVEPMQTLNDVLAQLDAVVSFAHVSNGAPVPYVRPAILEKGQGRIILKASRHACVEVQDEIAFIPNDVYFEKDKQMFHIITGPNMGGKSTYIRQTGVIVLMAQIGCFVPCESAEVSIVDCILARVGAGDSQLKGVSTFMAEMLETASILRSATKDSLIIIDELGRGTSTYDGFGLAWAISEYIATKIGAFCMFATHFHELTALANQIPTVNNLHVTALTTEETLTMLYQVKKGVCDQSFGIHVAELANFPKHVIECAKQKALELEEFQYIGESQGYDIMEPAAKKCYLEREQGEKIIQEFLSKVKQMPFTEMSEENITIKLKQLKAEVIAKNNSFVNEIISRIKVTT
T1 sequence (P20585 whole entry, chain 2 of 2): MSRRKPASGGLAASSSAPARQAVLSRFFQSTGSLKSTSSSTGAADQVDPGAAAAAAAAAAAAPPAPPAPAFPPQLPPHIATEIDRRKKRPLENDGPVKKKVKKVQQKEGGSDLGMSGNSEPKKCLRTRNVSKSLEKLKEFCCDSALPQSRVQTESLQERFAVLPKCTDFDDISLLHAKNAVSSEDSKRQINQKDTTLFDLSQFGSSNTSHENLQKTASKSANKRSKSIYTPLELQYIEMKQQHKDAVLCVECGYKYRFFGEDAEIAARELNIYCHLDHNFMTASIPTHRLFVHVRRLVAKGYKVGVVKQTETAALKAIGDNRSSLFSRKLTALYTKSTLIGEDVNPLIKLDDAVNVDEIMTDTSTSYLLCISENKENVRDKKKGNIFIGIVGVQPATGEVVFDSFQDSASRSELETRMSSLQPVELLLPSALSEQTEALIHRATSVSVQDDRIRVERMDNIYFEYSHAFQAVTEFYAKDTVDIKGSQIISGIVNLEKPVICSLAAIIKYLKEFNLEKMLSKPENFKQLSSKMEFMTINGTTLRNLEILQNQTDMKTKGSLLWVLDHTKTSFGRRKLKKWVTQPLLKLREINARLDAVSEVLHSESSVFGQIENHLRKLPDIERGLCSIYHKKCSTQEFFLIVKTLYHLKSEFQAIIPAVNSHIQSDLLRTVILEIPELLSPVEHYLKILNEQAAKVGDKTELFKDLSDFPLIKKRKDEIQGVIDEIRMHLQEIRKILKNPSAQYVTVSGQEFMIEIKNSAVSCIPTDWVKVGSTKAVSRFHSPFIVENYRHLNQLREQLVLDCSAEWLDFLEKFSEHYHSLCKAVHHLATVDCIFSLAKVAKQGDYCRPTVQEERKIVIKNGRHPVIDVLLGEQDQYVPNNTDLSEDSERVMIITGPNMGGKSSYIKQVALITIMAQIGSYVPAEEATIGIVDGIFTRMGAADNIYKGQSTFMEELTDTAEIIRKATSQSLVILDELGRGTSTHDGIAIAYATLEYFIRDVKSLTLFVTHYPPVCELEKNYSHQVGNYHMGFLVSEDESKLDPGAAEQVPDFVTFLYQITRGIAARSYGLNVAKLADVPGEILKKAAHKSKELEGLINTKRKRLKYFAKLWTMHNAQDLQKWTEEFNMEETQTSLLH

t1/2 of dissociation of the ternary complex (MutSβ (MSH2-MSH3) [1]): 7 s | Kd (MutSβ (MSH2-MSH3) [2]): 400 nM
B1: MutLα (MLH1-PMS2) (enzyme, human)
chain 1: MSFVAGVIRRLDETVVNRIAAGEVIQRPANAIKEMIENCLDAKSTSIQVIVKEGGLKLIQIQDNGTGIRKEDLDIVCERFTTSKLQSFEDLASISTYGFRGEALASISHVAHVTITTKTADGKCAYRASYSDGKLKAPPKPCAGNQGTQITVEDLFYNIATRRKALKNPSEEYGKILEVVGRYSVHNAGISFSVKKQGETVADVRTLPNASTVDNIRSIFGNAVSRELIEIGCEDKTLAFKMNGYISNANYSVKKCIFLLFINHRLVESTSLRKAIETVYAAYLPKNTHPFLYLSLEISPQNVDVNVHPTKHEVHFLHEESILERVQQHIESKLLGSNSSRMYFTQTLLPGLAGPSGEMVKSTTSLTSSSTSGSSDKVYAHQMVRTDSREQKLDAFLQPLSKPLSSQPQAIVTEDKTDISSGRARQQDEEMLELPAPAEVAAKNQSLEGDTTKGTSEMSEKRGPTSSNPRKRHREDSDVEMVEDDSRKEMTAACTPRRRIINLTSVLSLQEEINEQGHEVLREMLHNHSFVGCVNPQWALAQHQTKLYLLNTTKLSEELFYQILIYDFANFGVLRLSEPAPLFDLAMLALDSPESGWTEEDGPKEGLAEYIVEFLKKKAEMLADYFSLEIDEEGNLIGLPLLIDNYVPPLEGLPIFILRLATEVNWDEEKECFESLSKECAMFYSIRKQYISEESTLSGQQSEVPGSIPNSWKWTVEHIVYKALRSHILPPKHFTEDGNILQLANLPDLYKVFERC
chain 2: MERAESSSTEPAKAIKPIDRKSVHQICSGQVVLSLSTAVKELVENSLDAGATNIDLKLKDYGVDLIEVSDNGCGVEEENFEGLTLKHHTSKIQEFADLTQVETFGFRGEALSSLCALSDVTISTCHASAKVGTRLMFDHNGKIIQKTPYPRPRGTTVSVQQLFSTLPVRHKEFQRNIKKEYAKMVQVLHAYCIISAGIRVSCTNQLGQGKRQPVVCTGGSPSIKENIGSVFGQKQLQSLIPFVQLPPSDSVCEEYGLSCSDALHNLFYISGFISQCTHGVGRSSTDRQFFFINRRPCDPAKVCRLVNEVYHMYNRHQYPFVVLNISVDSECVDINVTPDKRQILLQEEKLLLAVLKTSLIGMFDSDVNKLNVSQQPLLDVEGNLIKMHAADLEKPMVEKQDQSPSLRTGEEKKDVSISRLREAFSLRHTTENKPHSPKTPEPRRSPLGQKRGMLSSSTSGAISDKGVLRPQKEAVSSSHGPSDPTDRAEVEKDSGHGSTSVDSEGFSIPDTGSHCSSEYAASSPGDRGSQEHVDSQEKAPKTDDSFSDVDCHSNQEDTGCKFRVLPQPTNLATPNTKRFKKEEILSSSDICQKLVNTQDMSASQVDVAVKINKKVVPLDFSMSSLAKRIKQLHHEAQQSEGEQNYRKFRAKICPGENQAAEDELRKEISKTMFAEMEIIGQFNLGFIITKLNEDIFIVDQHATDEKYNFEMLQQHTVLQGQRLIAPQTLNLTAVNEAVLIENLEIFRKNGFDFVIDENAPVTERAKLISLPTSKNWTFGPQDVDELIFMLSDSPGVMCRPSRVKQMFASRACRKSVMIGTALNTSEMKKLITHMGEMDHPWNCPHGRPTMRHIANLGVISQN
notes: Purified as in Iyer et al. (21)
